# From the supplement of paper PMC9170038
# Tested on: MS2 coat protein
# Assay: apparent KD of MS2 coat protein; higher = weaker reporter binding
# Conditions: Eterna round: R107
# Summary of the method: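 Apparent KD stands for the median, per design, of fits to normalised cluster binding curves. The curves came from titrating on-chip-transcribed RNA switches on Illumina sequencing clusters with SNAP-549-labelled MS2 coat protein, twofold from 0.7 or 1.5 nM to 3 µM. Buffer was 100 mM Tris-HCl pH 7.5, 80 mM KCl, 4 mM MgCl2, without or with constant ligand.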
# [1] = input ligand: theophylline 20 uM
# [2] = input ligand: theophylline 2 mM
# [3] = input ligand: tryptophan 2.4 mM
Sequence,apparent KD of MS2 coat protein (input ligand: arginine 13.2 mM) [nM],apparent KD of MS2 coat protein [1] [nM],apparent KD of MS2 coat protein [2] [nM],apparent KD of MS2 coat protein [3] [nM],apparent KD of MS2 coat protein (input ligand: none) [nM]
UCAGUGGGUUCGGCCGCCACUUGAGUGAUGGUGCCUCAAUAAGUCUACAUGAGGAUCACCCAUGUAAGGACCGGGAAUUUUAUGG [theeternabot_exclusion_MS2_Trp_B_19],33.3,59.1,43.2,–,–
UCAUAAGUACCGGUCCUCAGAUCCUCAUGACGAGGACCGGUACGGCCGCCACUCGAAACAUGAGGAUCACCCAUGUAAUAACAUU [Brourdmod23],19.5,28.4,26.1,–,–
UCAUACAUGAGGAUCACCCAUGUUCGUGGGCGAGGACCGGUACGGCCGCCACUCGUACUAACGGUUUCUUAAACUUCCUUUCGAG [theeternabot_sameState_MS2_Trp_A_49],28.3,41.2,40.4,–,–
UCAUUGAGAGUCAUCCAGCGUUAAUGGGAUACCAGAGUUCUUUUACUCCCUUGGCAGCCCGGAACAUGAGGAUCACCCAUGUCUG [theeternabot_exclusion_MS2_Theo_A_39],16.7,44.7,–,31.8,–
UCGCGAGAGGGAAGGAGCGUCAGCUGAGUCACAUGAGGAUCACCCAUGUCGCACAUAGUGUGACAGGUAGGUCGCCCUCCGCCCU [Leinticees],99.6,248,192,157,134
UCGCUCGCCGGAAGGCGAGCGAGUUGCGAUACCAGCCCGGAAACGGGCCCUUGGCAGCGCACAUGAGGAUCACCCAUGUCAUGUU [#1 Exclusion - Theophylline A Attempt #6 (HarryS)],24.3,27.5,–,18.3,–
UCGCUCUGGGUGAAAUCCGGAGAUGUGGAAGGAGCGCUCGAAAGAGCAGGUAGGUCGCCAACGGACAUGAGGAUCACCCAUGUAC [Same State - Arginine A (Freestyle 20)],31,50,75.3,38.3,29.6
UCGCUCUGGGUGAGAUCCGGAGAUGUGGAAGGAGCGCUGGUUCCAGCAGGUAGGUCGCCAACGGACAUGAGGAUCACCCAUGUAC [Same State - Arginine A (Freestyle 13)],39.2,63.1,70.4,45.9,51.7
UCGGACAUGAGGAUCACCCAUGUAAAUCCUCGAGGACCGGUACGGCCGCCACUCGAACGAGUGGCGCGCGAGCGCGCGCUCGCGC [aGa],20.4,67.7,62.5,36.9,43.8
UCGGGAACAUGAGGAUCACCCAUGUCAGAAGGAGCGCUGAGAGAAGCAGGUAGGUCGCUGACGUAGGAGCUCUCUUCCUAUACGC [Exclusion - Arginine A],23.3,40.1,35.4,25.4,30.6
UCGGGCAGAGCGGCCGCCACUGUUUGGCGUGCGGAUGAAGGAACAUGAGGAUCACCCAUGUUGAUUAGGACCGGGCUUGCGGAGA [kklmullin],12.6,27,17.4,16.7,17.1
UCGUGUGUUUCGGAUACCAGUGUGGUCGAUACAUGAGGAUCACCCAUGUGAGAGGAGGUACACCCUUGGCAGCUGGCUGUUGCGG [qqwmullin],39.7,82,–,77.5,–
UCGUUAUGGUCGGCCGCCACUCGCGGAGAGCAUAGCUCAAACAUGAGGAUCACCCAUGUAUCAUGGAGGACCGGGACCAUAACGU [Rxmullin variation #StaticStem],30,46.1,42.7,–,–
UCGUUUUAGUCGGCCGCCACUGUAUGCAUGUUUAACAUGAGGAUCACCCAUGUCCCGUACUAUAACAGGACCGGGACGUAAUAGA [JR_SSTryptoB_Sub006],112,207,936,–,–
UCUAGGCUCGGAAACGAGCCUAGUACAGAAGGAGCGUGGAUUAACACAGGUAGGUCGCUGACAUGAGGAUCACCCAUGUAUUAUU [SSAA #3],32.5,38,31,27.7,24.3
UCUCGGUCUUUCUUUCUCCGAGAAUAUGAUACCAGUUAGUUUUAUGGCCCUUGGCAGCAUAGAACAUGAGGAUCACCCAUGUGUU [SSThA NP+V+V2 #9 +-Same Structure],48.1,114,–,96.5,–
UCUGGGUCCGCAAGGACCUGGAGUUGCGAUACCAGCACGGUAACGUGCCCUUGGCAGCGCACAUGAGGAUCACCCAUGUGGUGUU [#1 Exclusion - Theophylline A Attempt #17 (HarryS)],86.6,365,–,204,–
UCUUGAGUUUCGGAUACCAGUGAUGUCGAUACAUGAGGAUCACCCAUGUUAGAGGAUGUACACCCUUGGCAGCCGGGUGUGGCGG [wswmullin],25.1,42.1,27.5,44.9,36
UGACAUUGCUCAGAUACCAGACAUGAGCAUCAGCCAUGUACCAAGAGUACAUAUUAAAAUGUCCCUUGGCAGCUGAGCAAUGUCU [Mod of Eli's TheoBX5 #AlternateMS2 v1],15.2,18.7,166,11.8,11

Sequence,apparent KD of MS2 coat protein (input ligand: arginine 13.2 mM) [nM],apparent KD of MS2 coat protein [1] [nM],apparent KD of MS2 coat protein [2] [nM],apparent KD of MS2 coat protein [3] [nM],apparent KD of MS2 coat protein (input ligand: none) [nM]
UGACAUUGCUCAGAUACCAGACAUGAGGAUCACCCAUGUGCCAAAACGUACUAAAUAAAUGUCCCUUGGCAGCUGAGCAAUGUCU [TheoBX 13 #MS2Left #Theo2],13.5,14.4,–,12.9,–
UGAGGGACCAGAAGGAGCGACAUGAGGAUCACCCAUGUCUCCCGUUAUGGGAGUUCUUUAGGUCAGGUAGGUCGCUGGUCCCUCA [#1 Exclusion - Arginine B Attempt #7 (Inspired by Omei)],25.6,256,–,–,77.9
UGAUGGUGCUGAAGGAGCGUGUAAGAACAAGAACAUGAGGAUCACCCAUGUAUUAAUUUAACGCAGGUAGGUCGCGGUGUUAUUG [11.M],22.4,30.7,22.4,18.6,20.2
UGAUUGAACGGAAGGAGCGUGAAGAGAGAGAAACAUGAGGAUCACCCAUGUAGAGAGAGAACACAGGUAGGUCGCCGAGAGAUUG [11.B],14.5,21.2,14.7,11.2,13.4
UGCAUGAGGAUCGCCCGUGUCGAGCCGGUGCGAGGACCGGUACGGCCGCCACUCGAGACAUGAGGAUCACCCAUGUUGUGCGUGA [Exclusion Tryptophan A GF24],27.9,79.5,56.4,–,–
UGCGGACAUGAGGAUCACCCAUGUGCGGAUACCAGCAGCCGGCUCUGCCCUUGGCAGCCGCUACCCUUGCACGUUUAACGAUCCA [theeternabot_sameState_MS2_Theo_A_27],31.9,60.2,–,50.1,–
UGCUGACAAGGACAUGGAUGAUCAGCUGAUACCAGCCUGGAAACAGGCCCUUGGCAGCAGCACAUGAGGAUCACCCAUGUAAUAA [(T)'-(M)'-(T1)-(T2)-(M1)-(M2)_Design3(Mismatches)],28.4,78.1,–,27.2,–
UGGAGUAGGACGGCCGCCACUAUACAAUGUGUAUACAUGAGGAUCACCCAUGUAAUCCUCGGAGAUAGGACCGGGUCAAGUUGUG [X-tryptB-ms2@35],39.4,85.4,59.8,–,–
UGGCAAGAGGGAAGGAGCGUCAGCAGAGUCACAUGAGGAUCACCCAUGUAGCACGUGGUGUGACAGGUAGGUCGCCCUCUGCCGU [SS-ArgB12],24.3,30.7,21.8,22.1,15.1
UGGCAAGAGGGAAGGAGCGUCAGCUGAGUCACAUGAGGAUCACCCAUGUAGCACAUGGUGUGACAGGUAGGUCGCCCUCUGCCGU [SS-ArgB11],34.4,36.6,28.8,23.7,21.5
UGGUACAUGAGGAUCACCCAUGUUCCAGAUACCAGCGUCCCGGUGCGCCCUUGGCAGCUGGUGGUACAUGAGGAUCACCCAUGUG [Exclusion Theophylline A GF14],35.2,50,61.2,44.9,40.2
UGGUACAUGGCGGCCGCCACUUCACGUAAAAUAAAAACGUGAGGAUCACCCACGUAAUAAGUUGGGAGGACCGGGUCAUGUACCU,122,344,491,123,321
UGGUACUAGGCGGCCGCCACUGGGUGAUACAUGAGGAUCACCCAUGUUUAAUGCCGAGAGGCAACUAGGACCGGGCCUAGUACAU,101,339,586,–,–
UGUAACAUGAGGAUCACCCAUGUAAGUGAUACCAGAUAAGUAGUAGUCCCUUGGCAGCAUAUUGGGCGAGUGUAUAGUCUAUACG [Same State - Theophylline A (Freestyle 7)],39.9,69.8,–,49.7,–
UGUACCAUGUCGGCCGCCACUCAUGAUAAGCAUGAGGAUCACCCAUGUAGCGUCAAAGACGCUAUGAGGACCGGGACAUGGUACU [TryBS Zipper 2],34.3,47.1,41.2,13.2,34.7
UGUACUAUGUGAAGGAGCGAGAAGGAGCGAACAUGAGGAUCACCCAUGUACAGGUAGGUCGCUCAGGUAGGUCGCACAUAGUACU [ArgBS - Double aptamer],13.2,14.6,14.4,11.7,9.94
UGUAUGGACUGAAGGAGCGGAUGAUAAUCUGAGGAUCACCCAGGUAAUAAGGCGAAAGCCAUCCAGGUAGGUCGCAGUCCAUACU,40.9,96.9,111,103,82.9
UGUAUGGACUGAAGGAGCGGUAGAUAGCUUGAGGAUCACCCAAGUAAUAAGGCGAAAGCCUACCAGGUAGGUCGCAGUCCAUACU,28,30.8,26.9,27.9,25.4
UGUAUGUGAUCUGAUACCAGAGUUGAUAACCUGAGGAUCACCCUGGUAAGGCGAAAGCCACUCCCUUGGCAGCAGAUCGCAUACU,131,67.4,18.3,101,86.1
